The source of these data is patent US8017152B2, “Cores and microcapsules suitable for parenteral administration as well as process for their manufacture” (Stratosphere Pharma AB, priority 2005, dated 2011).

This data set can be described thus: Protein integrity of encapsulated hGH by size exclusion HPLC (SEC-HPLC): dimer, polymer and aggregate forms. Conditions: before encapsulation. The data set is classed as physicochemical. The procedure:
Three batches of maltodextrin microspheres were prepared (50% W/W, 1 ml, 1 ml and 1.8 ml, respectively, in sodium acetate, 10 mM, pH 6.4, 2 mM zinc acetate) in which the GH was suspended manually. The compositions were transferred to Miglyol 829 (10, 20 and 30 ml, respectively), W/O emulsions were created by homogenization (Turrax) and left under refrigeration over night (about 16 hours), then centrifuged (Sorvall SS34, 7000 rpm, 10 min) and washed three times with cold acetone (about 30 g, centrifugation 5 min), allowed to air dry and sieved. The batches were sieved and then pooled. […] The protein quality was determined after centrifugation using HPLC size exlusion chromatography (SEC-HPLC, TSK2000 SWxl, Tosoh Corporation) according to Reslow et al. (supra). […] The fractions were pooled to provide about 0.57 g of cores.
The core loading was about 75% on the pooled batches. Protein integrity was determined after suspending the cores in a buffer (50 mM HEPES, 10 mM EDTA, pH 7.3). After gentle mixing for about one hour the cores had dissolved.
Free flowing single core microcapsules were obtained as evaluated by light microscopy. Protein integrity was determined essentially according to Reslow et al. (supra), including removal of the PLGA coating with a mixture of methylene chloride and acetone.

In the case of Human growth hormone [hGH], the “dimer content of hGH starting material / before immobilisation” value is recorded as “approximately 2.4%”. For the same substance, the “dimer content of hGH starting material / before immobilisation” value (listed as GH) is reported as “about 2.4%”.
